T1: factor XIIIa (human, UniProt P00488 39-732)
T1 sequence (looked up): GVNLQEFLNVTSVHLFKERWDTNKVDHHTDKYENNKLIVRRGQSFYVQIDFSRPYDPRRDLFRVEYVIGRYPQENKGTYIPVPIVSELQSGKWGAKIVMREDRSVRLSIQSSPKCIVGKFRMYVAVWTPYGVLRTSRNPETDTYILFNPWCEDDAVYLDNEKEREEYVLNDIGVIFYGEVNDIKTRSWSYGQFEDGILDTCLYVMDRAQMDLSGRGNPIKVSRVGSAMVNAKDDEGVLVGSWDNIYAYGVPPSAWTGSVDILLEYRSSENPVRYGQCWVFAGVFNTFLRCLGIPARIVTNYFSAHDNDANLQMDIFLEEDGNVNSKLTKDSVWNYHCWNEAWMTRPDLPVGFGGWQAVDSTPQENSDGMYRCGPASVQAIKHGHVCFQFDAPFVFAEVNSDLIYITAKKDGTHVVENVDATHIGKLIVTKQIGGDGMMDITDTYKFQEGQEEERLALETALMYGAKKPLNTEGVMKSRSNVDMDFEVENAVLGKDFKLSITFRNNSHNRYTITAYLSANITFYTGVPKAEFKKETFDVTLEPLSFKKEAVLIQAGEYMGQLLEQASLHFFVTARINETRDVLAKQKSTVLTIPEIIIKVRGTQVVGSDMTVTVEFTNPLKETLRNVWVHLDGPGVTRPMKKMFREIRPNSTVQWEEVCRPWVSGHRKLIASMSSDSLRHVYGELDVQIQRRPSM

B1: recombinant wild-type tridegin polypeptide (SEQ ID No. 1) from Escherichia coli (protein, not shown: small tags and cut ends)
chain: MKLLPCKEWHQGIPNPRCWCGADLECAQDQYCAFIPQCRPRSELIKPMDDIYQRPVEFPNLPLKPREE
B2: modified tridegin R39A (protein, not shown: small tags and cut ends)
chain: MKLLPCKEWHQGIPNPRCWCGADLECAQDQYCAFIPQCAPRSELIKPMDDIYQRPVEFPNLPLKPREE
B3: modified tridegin D50A (protein, not shown: small tags and cut ends)
chain: MKLLPCKEWHQGIPNPRCWCGADLECAQDQYCAFIPQCRPRSELIKPMDAIYQRPVEFPNLPLKPREE
B4: modified tridegin D50A, P55L (protein, not shown: small tags and cut ends)
chain: MKLLPCKEWHQGIPNPRCWCGADLECAQDQYCAFIPQCRPRSELIKPMDAIYQRLVEFPNLPLKPREE
B5: modified tridegin I45A (protein, not shown: small tags and cut ends)
chain: MKLLPCKEWHQGIPNPRCWCGADLECAQDQYCAFIPQCRPRSELAKPMDDIYQRPVEFPNLPLKPREE
B6: modified tridegin F58A (protein, not shown: small tags and cut ends)
chain: MKLLPCKEWHQGIPNPRCWCGADLECAQDQYCAFIPQCRPRSELIKPMDDIYQRPVEAPNLPLKPREE
B7: modified tridegin F34A (protein, not shown: small tags and cut ends)
chain: MKLLPCKEWHQGIPNPRCWCGADLECAQDQYCAAIPQCRPRSELIKPMDDIYQRPVEFPNLPLKPREE
B8: modified tridegin P65A (protein, not shown: small tags and cut ends)
chain: MKLLPCKEWHQGIPNPRCWCGADLECAQDQYCAFIPQCRPRSELIKPMDDIYQRPVEFPNLPLKAREE
B9: modified tridegin M48A (protein, not shown: small tags and cut ends)
chain: MKLLPCKEWHQGIPNPRCWCGADLECAQDQYCAFIPQCRPRSELIKPADDIYQRPVEFPNLPLKPREE
B10: modified tridegin N60A (protein, not shown: small tags and cut ends)
chain: MKLLPCKEWHQGIPNPRCWCGADLECAQDQYCAFIPQCRPRSELIKPMDDIYQRPVEFPALPLKPREE

The binders below were run against T1, factor XIIIa (assay: cell-based or functional assay).

Q: How did the IC50, Berichrom assay (factor XIIIa activity) turn out when B1 was run?
A: 2000 to 4000 nM

Q: What about the Relative inhibitory effect (%) at 5.45 µM, wild type = 100% of the same binder?
A: 100%

Q: And the Relative inhibitory effect (%) at 7.27 µM (reference)?
A: 100%

Q: For B2, which Relative inhibitory effect (%) at 5.45 µM, wild type = 100% is on record?
A: 49%

Q: How did the Relative inhibitory effect (%) at 5.45 µM, wild type = 100% turn out when B3 was run?
A: 53%

Q: With B4 as the binder, how does the Relative inhibitory effect (%) at 5.45 µM, wild type = 100% read?
A: 84%

Q: With B5 as the binder, how does the Relative inhibitory effect (%) at 5.45 µM, wild type = 100% read?
A: 115%

Q: How did the Relative inhibitory effect (%) at 5.45 µM, wild type = 100% turn out when B6 was run?
A: 60%

Q: How did the Relative inhibitory effect (%) at 5.45 µM, wild type = 100% turn out when B7 was run?
A: 96%

Q: How did the Relative inhibitory effect (%) at 5.45 µM, wild type = 100% turn out when B8 was run?
A: 51%

Q: For B9, which Relative inhibitory effect (%) at 5.45 µM, wild type = 100% is on record?
A: 91%

Q: B10 was tested. Which Relative inhibitory effect (%) at 5.45 µM, wild type = 100% did it give?
A: 68%

Target: T1, factor XIIIa
Assay: cell-based or functional assay
Remark: another data set of the same source

Q: How did the “Relative inhibitory effect (%) at 7.27 µM, recombinant tridegin = 100%” value turn out when Ac-YCAFEPQCRPRSELIKPMDD-NH2 (cysteine pairing not given here) [20 amino acid-long tridegin peptide SEQ ID NO.17] was run?
A: 12.3%

Q: Ac-KEWHQGIPNPRCWCGADLEC-NH2 (cysteine pairing not given here) [20 amino acid-long tridegin peptide SEQ ID NO.5] was tested. Which “Relative inhibitory effect (%) at 7.27 µM, recombinant tridegin = 100%” value did it give?
A: 1.96%

Q: How did the “Relative inhibitory effect (%) at 7.27 µM, recombinant tridegin = 100%” value turn out when Ac-ELIKPMDDIYQRPVEFPNLP-NH2 [20 amino acid-long tridegin peptide SEQ ID NO.23] was run?
A: 24%

Q: How did the “Relative inhibitory effect (%) at 7.27 µM, recombinant tridegin = 100%” value turn out when Ac-IPNPRCWCGADLECAQDQYC-NH2 (cysteine pairing not given here) [20 amino acid-long tridegin peptide SEQ ID NO.8] was run?
A: 13.7%

Q: Ac-WCGADLECAQDQYCAFEPQC-NH2 (cysteine pairing not given here) [20 amino acid-long tridegin peptide SEQ ID NO.11] was tested. Which “Relative inhibitory effect (%) at 7.27 µM, recombinant tridegin = 100%” value did it give?
A: 0.36%

Q: How did the “Relative inhibitory effect (%) at 7.27 µM, recombinant tridegin = 100%” value turn out when Ac-MKLLPCKEWHQGIPNPRCWC-NH2 (cysteine pairing not given here) [20 amino acid-long tridegin peptide SEQ ID NO.2] was run?
A: 0%

Q: With Ac-LLPCKEWHQGIPNPRCWCGA-NH2 (cysteine pairing not given here) [20 amino acid-long tridegin peptide SEQ ID NO.3] as the binder, how does the “Relative inhibitory effect (%) at 7.27 µM, recombinant tridegin = 100%” value read?
A: 5.88%

Q: For Ac-AQDQYCAFIPQCRPRSELIK-NH2 (cysteine pairing not given here) [20 amino acid-long tridegin peptide SEQ ID NO.15], which “Relative inhibitory effect (%) at 7.27 µM, recombinant tridegin = 100%” value is on record?
A: 3.32%

Q: With Ac-GADLECAQDQYCAFIPQCRP-NH2 (cysteine pairing not given here) [20 amino acid-long tridegin peptide SEQ ID NO.12] as the binder, how does the “Relative inhibitory effect (%) at 7.27 µM, recombinant tridegin = 100%” value read?
A: 2.49%

Q: With Ac-ECAQDQYCAFIPQCRPRSEL-NH2 (cysteine pairing not given here) [20 amino acid-long tridegin peptide SEQ ID NO.14] as the binder, how does the “Relative inhibitory effect (%) at 7.27 µM, recombinant tridegin = 100%” value read?
A: 6.3%

Q: Ac-PCKEWHQGIPNPRCWCGADL-NH2 (cysteine pairing not given here) [20 amino acid-long tridegin peptide SEQ ID NO.4] was tested. Which “Relative inhibitory effect (%) at 7.27 µM, recombinant tridegin = 100%” value did it give?
A: 9.8%

Q: Which “Relative inhibitory effect (%) at 7.27 µM, recombinant tridegin = 100%” value does the source give for Ac-WHQGIPNPRCWCGADLECAQ-NH2 (cysteine pairing not given here) [20 amino acid-long tridegin peptide SEQ ID NO.6] here?
A: 9.8%

Q: Ac-RCWCGADLECAQDQYCAFIP-NH2 (cysteine pairing not given here) [20 amino acid-long tridegin peptide SEQ ID NO.10] was tested. Which “Relative inhibitory effect (%) at 7.27 µM, recombinant tridegin = 100%” value did it give?
A: 5.88%

Q: For Ac-NPRCWCGADLECAQDQYCAF-NH2 (cysteine pairing not given here) [20 amino acid-long tridegin peptide SEQ ID NO.9], which “Relative inhibitory effect (%) at 7.27 µM, recombinant tridegin = 100%” value is on record?
A: 0%

Q: Ac-RSELIKPMDDIYQRPVEFPN-NH2 [20 amino acid-long tridegin peptide SEQ ID NO.22] was tested. Which “Relative inhibitory effect (%) at 7.27 µM, recombinant tridegin = 100%” value did it give?
A: 8.64%

Q: How did the “Relative inhibitory effect (%) at 7.27 µM, recombinant tridegin = 100%” value turn out when Ac-QCRPRSELIKPMDDIYQRPV-NH2 [20 amino acid-long tridegin peptide SEQ ID NO.20] was run?
A: 11.1%

Q: For Ac-RPRSELIKPMDDIYQRPVEF-NH2 [20 amino acid-long tridegin peptide SEQ ID NO.21], which “Relative inhibitory effect (%) at 7.27 µM, recombinant tridegin = 100%” value is on record?
A: 19.4%

Q: For Ac-AFIPQCRPRSELIKPMDDIY-NH2 [20 amino acid-long tridegin peptide SEQ ID NO.18], which “Relative inhibitory effect (%) at 7.27 µM, recombinant tridegin = 100%” value is on record?
A: 13.3%

Q: Ac-DLECAQDQYCAFIPQCRPRS-NH2 (cysteine pairing not given here) [20 amino acid-long tridegin peptide SEQ ID NO.13] was tested. Which “Relative inhibitory effect (%) at 7.27 µM, recombinant tridegin = 100%” value did it give?
A: 7.96%

Q: Which “Relative inhibitory effect (%) at 7.27 µM, recombinant tridegin = 100%” value does the source give for Ac-QGIPNPRCWCGADLECAQDQ-NH2 (cysteine pairing not given here) [20 amino acid-long tridegin peptide SEQ ID NO.7] here?
A: 13.7%

Q: Which “Relative inhibitory effect (%) at 7.27 µM, recombinant tridegin = 100%” value does the source give for Ac-DQYCAFIPQCRPRSELIKPM-NH2 (cysteine pairing not given here) [20 amino acid-long tridegin peptide SEQ ID NO.16] here?
A: 14.8%

Q: How did the “Relative inhibitory effect (%) at 7.27 µM, recombinant tridegin = 100%” value turn out when Ac-IPQCRPRSELIKPMDDIYQR-NH2 [20 amino acid-long tridegin peptide SEQ ID NO.19] was run?
A: 0%
